The values below come from US20260109758A1 (BIOSION, published 2026).

The target in experiment [1] is human IL4Rα on HEK293T-IL4R/STAT6/STAT6-Luc LB2 cells (human, UniProt P24394 26-825). Description: cell-based or functional assay.
The target in experiment [2] is T1, recombinant human TSLP-his (human, UniProt Q969D9 29-159, biotin-labeled in the ELISAs).
T1 construct: In-house made; not shown: His tag at the C-terminus
Briefly: capture ELISA: antibody captured on anti-human IgG Fc F(ab')2, biotin human TSLP-his, SA-HRP. The protocol:
Briefly, 96-well micro plates were coated with 100 μL 2 μg/mL AffiniPure F(ab′)₂ Fragment Goat Anti-Human IgG, Fey fragment specific (Jackson Immuno Research, Cat #109-006-008) in PBS and incubated overnight at 4° C. Plates were washed 4 times with wash buffer (PBS+0.05% Tween-20, PBST) and then blocked with 200 μL/well blocking buffer (5% w/v non-fatty milk in PBST) for 2 hours at 37° C. […] After the final wash, the plates were incubated with 100 μL/well TMB (Innoreagents). The reaction was stopped 15 minutes later at room temperature with 50 μL/well 1M H₂SO₄, and the absorbance of each well was read on a microplate reader using dual wavelength mode with 450 nm for TMB and 630 nm as the reference wavelength. The OD (450-630) values were plotted against antibody concentration. Data was analyzed using Graphpad Prism and EC₅₀ values were reported.

In experiment [3] the target is T2, biotin-labeled human TSLP-Fc (human, biotin-labeled).
T2 construct: also called TSLP-Fc protein; TSLP-Fc-biotin
Description: cell-based blocking FACS: antibody pre-mixed with biotin human TSLP-Fc; blocked binding to cell-surface TSLPR/IL7Ra on HEK293T-TSLPR/IL7R/STAT5-Luc 5C5 cells. Here is the method: The cells were prepared following the instruction of lipofectamine 3000 transfection reagent (Thermo Fisher), by transfecting HEK293T cells (ATCC® CRL-11268) with pCMV-T-P plasmids inserted with TSLPR coding sequence between EcoRI and Xba1 sites and pCMV3-SP plasmids inserted with IL7Ra coding sequence between HindIII and Xba1 sites as well as pGL4.52 [luc2P/STAT5RE/Hygro](Promega).
The cells were harvested from cell culture flasks, washed twice and re-suspended in phosphate buffered saline (PBS) containing 2% v/v Fetal Bovine Serum (FACS buffer). […] Cells were washed twice with FACS buffer, and then added and incubated with 100 μL/well R-Phycoerythrin Streptavidin (1:500 dilution in FACS buffer, Jackson Immunoresearch, Cat #016-110-084) for 40 minutes at 4° C. in dark. Cells were washed twice and re-suspended in FACS buffer. Fluorescence was measured using a Becton Dickinson FACS Canto II-HTS equipment. Data was analyzed using Graphpad Prism and IC₅₀ values were reported.

B1: BSI-502-003 (bispecific antibody, human IgG1, kappa)
heavy: EVQLVESGGGLVQPGGSLRLSCAASGFTFSTYGMSWVRQAPGKGLVWVATINSNGGSTSYPDSVKGRFTISRDNAKNTLYLQMNSLRAEDTAVYYCARFFRFRNAMDYWGQGTLVTVSSGGGGSGGGGSGGGGSGGGGSDIQMTQSPSSLSASVGDRVTITCRTSENIYSYLAWYQQKPGKAPKFLVYNAKTLAEGVPSRFSGSGSGTDFTLTISSLQPEDFATYYCQHYYGPPTWTFGQGTKVEIKGGGGSGGGGSQVQLVQSGAEVKKPGASVKVSCKASGYTFTTYWMHWVRQAPGQGLEWMGVIDPSDSDTTYNQKFKGRVTMTRDTSTSTVYMELSSLRSEDTAVYYCTRSLDGYYDYWGQGTLVTVSSASTKGPSVFPLAPSSKSTSGGTAALGCLVKDYFPEPVTVSWNSGALTSGVHTFPAVLQSSGLYSLSSVVTVPSSSLGTQTYICNVNHKPSNTKVDKKVEPKSCDKTHTCPPCPAPEAQGGPSVFLFPPKPKDTLYITREPEVTCVVVDVSHEDPEVKFNWYVDGVEVHNAKTKPREEQYNSTYRVVSVLTVLHQDWLNGKEYKCQVSNKALPAPIEKTISKAKGQPREPQVYTLPPSRDELTKNQVSLTCLVKGFYPSDIAVEWESNGQPENNYKTTPPVLDSDGSFFLYSKLTVDKSRWQQGNVFSCSVMHEALHNHYTQKSLSLSPG
light: DIQMTQSPSSLSASVGDRVTITCRPTENIYSYLAWYQQKPGKAPKLLIYFARTLAEGVPSRFSGSGSGTDFTLTISSLQPEDFATYYCQHHYGTPWTFGGGTKVEIKRTVAAPSVFIFPPSDEQLKSGTASVVCLLNNFYPREAKVQWKVDNALQSGNSQESVTEQDSKDSTYSLSSTLTLSKADYEKHKVYACEVTHQGLSSPVTKSFNRGEC
notes: hu1C5F12E9-V8 IgG with an anti-IL4R scFv (huC2C1A1A1-V15, VH-VL) at the N-terminus of the heavy chain; AQQ and YTE already stand in the entry
B1: in experiment [1], the “Inhibition on IL4 induced STAT6 phosphorylation (IC50, nM)” value came to 0.0221 nM and the “Inhibition on IL13 induced STAT6 phosphorylation (IC50, nM)” value was determined as 0.0306 nM.

B2: BSI-502-004 (bispecific antibody, human IgG1, kappa)
heavy: DIQMTQSPSSLSASVGDRVTITCRTSENIYSYLAWYQQKPGKAPKFLVYNAKTLAEGVPSRFSGSGSGTDFTLTISSLQPEDFATYYCQHYYGPPTWTFGQGTKVEIKGGGGSGGGGSGGGGSGGGGSEVQLVESGGGLVQPGGSLRLSCAASGFTFSTYGMSWVRQAPGKGLVWVATINSNGGSTSYPDSVKGRFTISRDNAKNTLYLQMNSLRAEDTAVYYCARFFRFRNAMDYWGQGTLVTVSSGGGGSGGGGSQVQLVQSGAEVKKPGASVKVSCKASGYTFTTYWMHWVRQAPGQGLEWMGVIDPSDSDTTYNQKFKGRVTMTRDTSTSTVYMELSSLRSEDTAVYYCTRSLDGYYDYWGQGTLVTVSSASTKGPSVFPLAPSSKSTSGGTAALGCLVKDYFPEPVTVSWNSGALTSGVHTFPAVLQSSGLYSLSSVVTVPSSSLGTQTYICNVNHKPSNTKVDKKVEPKSCDKTHTCPPCPAPEAQGGPSVFLFPPKPKDTLYITREPEVTCVVVDVSHEDPEVKFNWYVDGVEVHNAKTKPREEQYNSTYRVVSVLTVLHQDWLNGKEYKCQVSNKALPAPIEKTISKAKGQPREPQVYTLPPSRDELTKNQVSLTCLVKGFYPSDIAVEWESNGQPENNYKTTPPVLDSDGSFFLYSKLTVDKSRWQQGNVFSCSVMHEALHNHYTQKSLSLSPG
light: DIQMTQSPSSLSASVGDRVTITCRPTENIYSYLAWYQQKPGKAPKLLIYFARTLAEGVPSRFSGSGSGTDFTLTISSLQPEDFATYYCQHHYGTPWTFGGGTKVEIKRTVAAPSVFIFPPSDEQLKSGTASVVCLLNNFYPREAKVQWKVDNALQSGNSQESVTEQDSKDSTYSLSSTLTLSKADYEKHKVYACEVTHQGLSSPVTKSFNRGEC
notes: hu1C5F12E9-V8 IgG with an anti-IL4R scFv (VL-VH) at the N-terminus of the heavy chain; AQQ and YTE already stand in the entry
With B2, in experiment [1], the “Inhibition on IL4 induced STAT6 phosphorylation (IC50, nM)” value worked out at 0.0318 nM and the “Inhibition on IL13 induced STAT6 phosphorylation (IC50, nM)” value turned out to be 0.0276 nM.

B3: BSI-502-005 (bispecific antibody, human IgG1, kappa)
heavy: QVQLVQSGAEVKKPGASVKVSCKASGYTFTTYWMHWVRQAPGQGLEWMGVIDPSDSDTTYNQKFKGRVTMTRDTSTSTVYMELSSLRSEDTAVYYCTRSLDGYYDYWGQGTLVTVSSASTKGPSVFPLAPSSKSTSGGTAALGCLVKDYFPEPVTVSWNSGALTSGVHTFPAVLQSSGLYSLSSVVTVPSSSLGTQTYICNVNHKPSNTKVDKKVEPKSCDKTHTCPPCPAPEAQGGPSVFLFPPKPKDTLYITREPEVTCVVVDVSHEDPEVKFNWYVDGVEVHNAKTKPREEQYNSTYRVVSVLTVLHQDWLNGKEYKCQVSNKALPAPIEKTISKAKGQPREPQVYTLPPSRDELTKNQVSLTCLVKGFYPSDIAVEWESNGQPENNYKTTPPVLDSDGSFFLYSKLTVDKSRWQQGNVFSCSVMHEALHNHYTQKSLSLSPGKGGGGSGGGGSEVQLVESGGGLVQPGGSLRLSCAASGFTFSTYGMSWVRQAPGKGLVWVATINSNGGSTSYPDSVKGRFTISRDNAKNTLYLQMNSLRAEDTAVYYCARFFRFRNAMDYWGQGTLVTVSSGGGGSGGGGSGGGGSGGGGSDIQMTQSPSSLSASVGDRVTITCRTSENIYSYLAWYQQKPGKAPKFLVYNAKTLAEGVPSRFSGSGSGTDFTLTISSLQPEDFATYYCQHYYGPPTWTFGQGTKVEIK
light: DIQMTQSPSSLSASVGDRVTITCRPTENIYSYLAWYQQKPGKAPKLLIYFARTLAEGVPSRFSGSGSGTDFTLTISSLQPEDFATYYCQHHYGTPWTFGGGTKVEIKRTVAAPSVFIFPPSDEQLKSGTASVVCLLNNFYPREAKVQWKVDNALQSGNSQESVTEQDSKDSTYSLSSTLTLSKADYEKHKVYACEVTHQGLSSPVTKSFNRGEC
notes: hu1C5F12E9-V8 IgG with an anti-IL4R scFv (VH-VL) at the C-terminus of the heavy chain; AQQ and YTE already stand in the entry
For the molecule B3, the EC50 in experiment [2] amounted to 0.106 nM. In experiment [3], this molecule showed an IC50 of 1.39 nM.

B4: BSI-502-001 (bispecific antibody, human IgG1, kappa)
heavy: EVQLVESGGGLVQPGGSLRLSCAASGFTFSTYGMSWVRQAPGKGLVWVATINSNGGSTSYPDSVKGRFTISRDNAKNTLYLQMNSLRAEDTAVYYCARFFRFRNAMDYWGQGTLVTVSSASTKGPSVFPLAPSSKSTSGGTAALGCLVKDYFPEPVTVSWNSGALTSGVHTFPAVLQSSGLYSLSSVVTVPSSSLGTQTYICNVNHKPSNTKVDKKVEPKSCDKTHTCPPCPAPEAQGGPSVFLFPPKPKDTLYITREPEVTCVVVDVSHEDPEVKFNWYVDGVEVHNAKTKPREEQYNSTYRVVSVLTVLHQDWLNGKEYKCQVSNKALPAPIEKTISKAKGQPREPQVYTLPPSRDELTKNQVSLTCLVKGFYPSDIAVEWESNGQPENNYKTTPPVLDSDGSFFLYSKLTVDKSRWQQGNVFSCSVMHEALHNHYTQKSLSLSPGKGGGGSGGGGSQVQLVQSGAEVKKPGASVKVSCKASGYTFTTYWMHWVRQAPGQGLEWMGVIDPSDSDTTYNQKFKGRVTMTRDTSTSTVYMELSSLRSEDTAVYYCTRSLDGYYDYWGQGTLVTVSSGGGGSGGGGSGGGGSGGGGSDIQMTQSPSSLSASVGDRVTITCRPTENIYSYLAWYQQKPGKAPKLLIYFARTLAEGVPSRFSGSGSGTDFTLTISSLQPEDFATYYCQHHYGTPWTFGGGTKVEIK
light: DIQMTQSPSSLSASVGDRVTITCRTSENIYSYLAWYQQKPGKAPKFLVYNAKTLAEGVPSRFSGSGSGTDFTLTISSLQPEDFATYYCQHYYGPPTWTFGQGTKVEIKRTVAAPSVFIFPPSDEQLKSGTASVVCLLNNFYPREAKVQWKVDNALQSGNSQESVTEQDSKDSTYSLSSTLTLSKADYEKHKVYACEVTHQGLSSPVTKSFNRGEC
notes: huC2C1A1A1-V15 IgG with an anti-TSLP scFv (hu1C5F12E9-V8, VH-VL) at the C-terminus of the heavy chain
With B4, in experiment [1], the “Inhibition on IL4 induced STAT6 phosphorylation (IC50, nM)” value was 0.00703 nM and the “Inhibition on IL13 induced STAT6 phosphorylation (IC50, nM)” value came out at 0.0289 nM.

B5: BSI-502-002 (bispecific antibody, human IgG1, kappa)
heavy: EVQLVESGGGLVQPGGSLRLSCAASGFTFSTYGMSWVRQAPGKGLVWVATINSNGGSTSYPDSVKGRFTISRDNAKNTLYLQMNSLRAEDTAVYYCARFFRFRNAMDYWGQGTLVTVSSASTKGPSVFPLAPSSKSTSGGTAALGCLVKDYFPEPVTVSWNSGALTSGVHTFPAVLQSSGLYSLSSVVTVPSSSLGTQTYICNVNHKPSNTKVDKKVEPKSCDKTHTCPPCPAPEAQGGPSVFLFPPKPKDTLYITREPEVTCVVVDVSHEDPEVKFNWYVDGVEVHNAKTKPREEQYNSTYRVVSVLTVLHQDWLNGKEYKCQVSNKALPAPIEKTISKAKGQPREPQVYTLPPSRDELTKNQVSLTCLVKGFYPSDIAVEWESNGQPENNYKTTPPVLDSDGSFFLYSKLTVDKSRWQQGNVFSCSVMHEALHNHYTQKSLSLSPGKGGGGSGGGGSDIQMTQSPSSLSASVGDRVTITCRPTENIYSYLAWYQQKPGKAPKLLIYFARTLAEGVPSRFSGSGSGTDFTLTISSLQPEDFATYYCQHHYGTPWTFGGGTKVEIKGGGGSGGGGSGGGGSGGGGSQVQLVQSGAEVKKPGASVKVSCKASGYTFTTYWMHWVRQAPGQGLEWMGVIDPSDSDTTYNQKFKGRVTMTRDTSTSTVYMELSSLRSEDTAVYYCTRSLDGYYDYWGQGTLVTVSS
light: DIQMTQSPSSLSASVGDRVTITCRTSENIYSYLAWYQQKPGKAPKFLVYNAKTLAEGVPSRFSGSGSGTDFTLTISSLQPEDFATYYCQHYYGPPTWTFGQGTKVEIKRTVAAPSVFIFPPSDEQLKSGTASVVCLLNNFYPREAKVQWKVDNALQSGNSQESVTEQDSKDSTYSLSSTLTLSKADYEKHKVYACEVTHQGLSSPVTKSFNRGEC
notes: huC2C1A1A1-V15 IgG with an anti-TSLP scFv (VL-VH) at the C-terminus of the heavy chain; AQQ and YTE already stand in the entry
Take B5: in experiment [1], the “Inhibition on IL4 induced STAT6 phosphorylation (IC50, nM)” value was determined as 0.0129 nM and the “Inhibition on IL13 induced STAT6 phosphorylation (IC50, nM)” value came to 0.031 nM.
